Drawing on publication PMC4569402, this text covers stoichiometry N for 1 substance.

The test deals with wild-type influenza B virus nucleoprotein (BNP), B/panama/45/1990 (influenza B virus (B/panama/45/1990)). Nature of the test: negative-stain electron microscopy.

As to “wild-type influenza B virus nucleoprotein (BNP), B/panama/45/1990 (natural protein)”, the stoichiometry N (as a rule, the number of molecules, sites or subunits per partner or assembly) is above 6.
